This is an account of results in publication PMC6336407.

The Kd is the equilibrium constant for the complex coming apart. A lower Kd goes with a tighter complex. Broadly, the koff is the rate constant with which the complex falls apart. Lower therefore signals a long-lived complex. Usually kon stands for the rate constant with which the complex forms. High values mean faster complex formation, low ones slower complex formation.

Test [1] deals with IRE1 KR with N-terminal 6× His-tag (human). The test is described as follows: BLI; His-tagged IRE1 KR coupled to Ni-NTA biosensors; 80S or 60S at 5 to 500 nM in solution; 25°C, 25 mM HEPES pH 7.4, 150 mM KCl, 5 mM MgCl2, 250 µM TCEP; OCTET RED384.
Test [2] deals with IRE1-KR43 labeled with RED dye (human). The test is described as follows: MST; 100 nM IRE1-KR43 labeled with RED dye incubated with 80S at various concentrations for 30 min at 25°C; Monolith NT.115, 20% LED power, 40% IR-laser.

As for purified 80S ribosomes (complex), in test [1], the dissociation constant (Kd) came to 33.4 nM, the koff turned out to be 0.0598 s⁻¹ and the kon was determined as 1.81e+06 M⁻¹ s⁻¹. In test [2], the Kd was 30 nM.
